According to PMC11443449, “NudCL2 is required for cytokinesis by stabilizing RCC2 with Hsp90 at the midbody” (Protein & Cell, 2024):

Biological target: T1, His-RCC2 (human, UniProt Q9P258 1-522)
T1 construct: Regulator of chromosome condensation 2 (RCC2), human, full length, cloned by PCR from pSA-RCC2 into pET-28a; pET-28a (His-tag vector, Novagen); also called regulator of chromosome condensation 2; telophase disc protein of 60 kDa; source: Escherichia coli BL21, purified
Test: pull-down; GST pull-down with purified GST, GST-NudCL2 and His-RCC2; incubated in PBS at 4°C for 4 h, then glutathione-agarose beads for 2 h; Western blot
Conditions: both partners purified

T1 sequence (Q9P258 whole entry): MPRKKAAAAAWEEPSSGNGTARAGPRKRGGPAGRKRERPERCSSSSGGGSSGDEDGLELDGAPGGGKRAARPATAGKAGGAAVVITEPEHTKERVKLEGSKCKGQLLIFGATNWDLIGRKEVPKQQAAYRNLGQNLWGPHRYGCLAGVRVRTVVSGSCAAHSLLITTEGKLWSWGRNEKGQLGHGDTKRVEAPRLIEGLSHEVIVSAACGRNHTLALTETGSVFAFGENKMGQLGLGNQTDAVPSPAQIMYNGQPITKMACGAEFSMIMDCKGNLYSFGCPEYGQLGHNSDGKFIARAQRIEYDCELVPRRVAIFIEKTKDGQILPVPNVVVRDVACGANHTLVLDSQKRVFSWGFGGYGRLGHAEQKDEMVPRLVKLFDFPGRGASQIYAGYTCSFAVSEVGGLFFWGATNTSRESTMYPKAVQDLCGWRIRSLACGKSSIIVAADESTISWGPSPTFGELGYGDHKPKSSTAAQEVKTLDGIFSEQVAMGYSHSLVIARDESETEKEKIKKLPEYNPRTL

binding result: binds
B1: GST-NudCL2 (natural protein, human, UniProt Q8WVJ2 1-157, looked up)
chain: MSAPFEERSGVVPCGTPWGQWYQTLEEVFIEVQVPPGTRAQDIQCGLQSRHVALSVGGREILKGKLFDSTIADEGTWTLEDRKMVRIVLTKTKRDAANCWTSLLESEYAADPWVQDQMQRKLTLERFQKENPGFDFSGAEISGNYTKGGPDFSNLEK
notes: NudC-like protein 2 (NudCL2, NudCD2), human; Li et al., 2019; Yang et al., 2010, 2019) for the vector; also called NudC-like protein 2; NudC domain-containing protein 2; source: Escherichia coli BL21, purified
